Experimental findings from US20130225493A1 are described below.

B1: FGF-18^Δ51, O76093 52-207 (ligand)
chain: MLRLYQLYSRTSGKHIQVLGRRISARGEDGDKYAQLLVETDTFGSQVRIKGKETEFYLCMNRKGKLVGKPDGTSKECVFIEKVLENNYTALMSAKYSGWYVGFTKKGRPRKGPKTRENQQDVHFMKRYPKGQPELQKPFKYTTVTKRSRRIRPTHPA
modifications: here or on the partner: biotinylated in the immobilized receptor assays (sites not given)
B2: FGF-18 (recombinant wild type, mature form without the signal peptide), O76093 29-207 (ligand)
chain: MENVDFRIHVENQTRARDDVSRKQLRLYQLYSRTSGKHIQVLGRRISARGEDGDKYAQLLVETDTFGSQVRIKGKETEFYLCMNRKGKLVGKPDGTSKECVFIEKVLENNYTALMSAKYSGWYVGFTKKGRPRKGPKTRENQQDVHFMKRYPKGQPELQKPFKYTTVTKRSRRIRPTHPA
modifications: here or on the partner: biotinylated in the immobilized receptor assays (sites not given)
B3: FGF-18^Δ45, O76093 46-207 (ligand)
chain: MDVSRKQLRLYQLYSRTSGKHIQVLGRRISARGEDGDKYAQLLVETDTFGSQVRIKGKETEFYLCMNRKGKLVGKPDGTSKECVFIEKVLENNYTALMSAKYSGWYVGFTKKGRPRKGPKTRENQQDVHFMKRYPKGQPELQKPFKYTTVTKRSRRIRPTHPA
modifications: here or on the partner: biotinylated in the immobilized receptor assays (sites not given)
B4: FGF-18^Δ37, O76093 38-207 (ligand)
chain: MENQTRARDDVSRKQLRLYQLYSRTSGKHIQVLGRRISARGEDGDKYAQLLVETDTFGSQVRIKGKETEFYLCMNRKGKLVGKPDGTSKECVFIEKVLENNYTALMSAKYSGWYVGFTKKGRPRKGPKTRENQQDVHFMKRYPKGQPELQKPFKYTTVTKRSRRIRPTHPA
modifications: here or on the partner: biotinylated in the immobilized receptor assays (sites not given)

The target in the experiment is FGFR3-IIIc stably expressed on FDCP cells, P22607. Description: cell-based or functional assay.
Chain of FGFR3-IIIc stably expressed on FDCP cells, P22607 (P22607 23-806): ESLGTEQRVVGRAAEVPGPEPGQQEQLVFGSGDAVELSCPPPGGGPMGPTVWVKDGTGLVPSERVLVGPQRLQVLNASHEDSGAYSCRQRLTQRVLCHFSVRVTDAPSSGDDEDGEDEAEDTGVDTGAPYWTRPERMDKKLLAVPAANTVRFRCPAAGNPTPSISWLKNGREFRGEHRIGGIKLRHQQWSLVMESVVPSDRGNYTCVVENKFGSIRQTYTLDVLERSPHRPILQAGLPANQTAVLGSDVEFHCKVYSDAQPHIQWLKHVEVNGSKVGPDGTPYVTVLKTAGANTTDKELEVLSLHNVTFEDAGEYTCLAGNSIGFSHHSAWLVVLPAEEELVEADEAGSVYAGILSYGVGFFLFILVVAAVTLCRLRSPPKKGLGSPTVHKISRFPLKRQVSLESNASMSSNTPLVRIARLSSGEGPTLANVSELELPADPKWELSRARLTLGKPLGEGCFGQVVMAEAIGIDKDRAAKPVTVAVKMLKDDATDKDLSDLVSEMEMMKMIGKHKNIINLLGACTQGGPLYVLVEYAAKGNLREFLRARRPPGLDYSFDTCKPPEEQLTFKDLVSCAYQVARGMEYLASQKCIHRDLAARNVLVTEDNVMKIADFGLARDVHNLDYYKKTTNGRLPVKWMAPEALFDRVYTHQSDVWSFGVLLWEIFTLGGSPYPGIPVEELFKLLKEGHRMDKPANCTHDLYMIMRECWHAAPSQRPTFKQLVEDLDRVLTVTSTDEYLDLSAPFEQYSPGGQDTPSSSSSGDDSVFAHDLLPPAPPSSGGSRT
Turning to B1, the EC50 scores of FGF ligands in cell proliferation of FDCPR3 was found to be 3.97 ng/mL. B2 had an EC50 scores of FGF ligands in cell proliferation of FDCPR3 of 15.4 ng/mL. Next, B3: 5.44 ng/mL; B4: 3.14 ng/mL.
